Data on 10 molecules can be found in paper PMC5116745, “Importance of the C-terminal histidine residues of Helicobacter pylori GroES for Toll-like receptor 4 binding and interleukin-8 cytokine production” (Scientific Reports, 2016).

Data set [1] concerns the target recombinant human TLR4 protein (human) (UniProt O00206). Description: SPR; Biacore T200; TLR4 immobilised on CM5 chip (6000 RU); HpGroES proteins flowed at 7.8125-1000 nM, 30 μl/min, 25 °C; PBS with 0.05% P20; Kd from saturation curves (GraphPad Prism). For orientation: In SPR one partner is held on a chip, and binding of the other changes the refractive index at the surface.

Data set [2] deals with T1, recombinant human TLR4 protein (human, UniProt O00206 24-631).
T1 construct: Toll-like receptor 4, human, recombinant protein from R&D Systems; R&D Systems' recombinant human TLR4 is, as far as recalled, the extracellular domain with a His tag (some products are a complex with MD-2); also called Toll-like receptor 4; source: bought: R&D Systems
T1 sequence (O00206 24-631): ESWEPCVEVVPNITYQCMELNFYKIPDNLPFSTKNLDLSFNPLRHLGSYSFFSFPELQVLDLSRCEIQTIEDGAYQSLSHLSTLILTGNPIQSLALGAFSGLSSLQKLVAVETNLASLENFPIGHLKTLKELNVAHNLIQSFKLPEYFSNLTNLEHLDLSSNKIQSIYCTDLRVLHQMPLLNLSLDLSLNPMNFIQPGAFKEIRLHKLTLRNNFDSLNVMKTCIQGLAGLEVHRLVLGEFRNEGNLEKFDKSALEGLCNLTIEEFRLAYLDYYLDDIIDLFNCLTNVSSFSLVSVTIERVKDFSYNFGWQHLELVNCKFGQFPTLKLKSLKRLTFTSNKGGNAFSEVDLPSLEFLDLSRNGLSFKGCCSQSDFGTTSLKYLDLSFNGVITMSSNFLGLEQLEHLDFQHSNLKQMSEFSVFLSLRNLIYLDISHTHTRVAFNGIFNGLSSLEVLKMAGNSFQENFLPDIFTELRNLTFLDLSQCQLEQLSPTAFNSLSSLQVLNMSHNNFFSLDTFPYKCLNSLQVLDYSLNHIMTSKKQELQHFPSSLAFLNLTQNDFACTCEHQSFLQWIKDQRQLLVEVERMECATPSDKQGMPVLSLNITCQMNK
The description is as above. To be noted: both partners purified.

Data set [3] deals with the molecule itself. Nature of the data set: SEC; HiLoad 16/600 Superdex 200 pg; 150 mM NaCl, 25 mM potassium phosphate pH 7.4, 1 mM DTT, 0.3% glycerol; 2 ml/min.

Sequence of recombinant human TLR4 protein (human) (O00206 24-631): as above

One may read the Kd as the free concentration of one partner at which half of the binding sites on the other are occupied at equilibrium, for simple one-to-one binding. For the molecule “HpGroES H100A mutant (from UniProt P0A0R3 1-118) (natural protein)”, in data set [1], the dissociation constant (Kd) was > 1000 nM.

B1: Helicobacter pylori GroES (HpGroES), wild type (natural protein)
chain: MKFQPLGERVLVERLEEENKTSSGIIIPDNAKEKPLMGVVKAVSHKISEGCKCVKEGDVIAFGKYKGAEIVLDGTEYMVLELEDILGIVGSGSCCHTGNHDHKHAKEHEACCHDHKKH
notes: GroES (HspA) of Helicobacter pylori; domain A plus C-terminal domain B (residues 91-118); Protein was dialysed with 4 molar equivalents of NiSO4 before size exclusion (nickel-loaded); also called WT; heat shock protein (HSP) A; source: E. coli M15 (pQE30), purified (Ni2+-chelating Sepharose, Superdex 200 size exclusion)
As a reminder, the stoichiometry N is a count of units in the complex or per binding partner. As for B1, the Kd in data set [2] worked out at 100 nM. Moreover, the “stoichiometry N” value in data set [3] worked out at 7.

B2: HpGroES H108A mutant (natural protein, Helicobacter pylori, UniProt P0A0R3 1-118, looked up)
chain: MKFQPLGERVLVERLEEENKTSSGIIIPDNAKEKPLMGVVKAVSHKISEGCKCVKEGDVIAFGKYKGAEIVLDGTEYMVLELEDILGIVGSGSCCHTGNHDHKHAKEAEACCHDHKKH
notes: GroES (HspA) of Helicobacter pylori with a point mutation in domain B; Same construct as m1 with the mutation; nickel-loaded during purification; source: E. coli M15 (pQE30), purified (Ni2+-chelating Sepharose, Superdex 200 size exclusion)
For the molecule B2, in data set [2], the dissociation constant Kd is > 1000 nM. The “stoichiometry N” value in data set [3] was 7.

B3: HpGroES H102A mutant (natural protein, Helicobacter pylori, UniProt P0A0R3 1-118, looked up)
chain: MKFQPLGERVLVERLEEENKTSSGIIIPDNAKEKPLMGVVKAVSHKISEGCKCVKEGDVIAFGKYKGAEIVLDGTEYMVLELEDILGIVGSGSCCHTGNHDAKHAKEHEACCHDHKKH
notes: as for B2
Take B3: the equilibrium dissociation constant (Kd) in data set [2] is > 1000 nM. Moreover, the “stoichiometry N” value in data set [3] turned out to be 7.

B4: HpGroES H100A mutant (natural protein, Helicobacter pylori, UniProt P0A0R3 1-118, looked up)
chain: MKFQPLGERVLVERLEEENKTSSGIIIPDNAKEKPLMGVVKAVSHKISEGCKCVKEGDVIAFGKYKGAEIVLDGTEYMVLELEDILGIVGSGSCCHTGNADHKHAKEHEACCHDHKKH
notes: as for B2
For the molecule B4, the “stoichiometry N” value in data set [3] worked out at 7.

B5: HpGroES H96A mutant (natural protein, Helicobacter pylori, UniProt P0A0R3 1-118, looked up)
chain: MKFQPLGERVLVERLEEENKTSSGIIIPDNAKEKPLMGVVKAVSHKISEGCKCVKEGDVIAFGKYKGAEIVLDGTEYMVLELEDILGIVGSGSCCATGNHDHKHAKEHEACCHDHKKH
notes: as for B2
For B5, in data set [2], the equilibrium dissociation constant (Kd) was determined as 110 nM. For the same molecule, the “stoichiometry N” value in data set [3] came to 7.

B6: HpGroES H118A mutant (natural protein, Helicobacter pylori, UniProt P0A0R3 1-118, looked up)
chain: MKFQPLGERVLVERLEEENKTSSGIIIPDNAKEKPLMGVVKAVSHKISEGCKCVKEGDVIAFGKYKGAEIVLDGTEYMVLELEDILGIVGSGSCCHTGNHDHKHAKEHEACCHDHKKA
notes: as for B2
Take B6: in data set [2], the equilibrium dissociation constant (Kd) is > 1000 nM. Moreover, the “stoichiometry N” value in data set [3] was 7.

B7: HpGroES H104A mutant (natural protein, Helicobacter pylori, UniProt P0A0R3 1-118, looked up)
chain: MKFQPLGERVLVERLEEENKTSSGIIIPDNAKEKPLMGVVKAVSHKISEGCKCVKEGDVIAFGKYKGAEIVLDGTEYMVLELEDILGIVGSGSCCHTGNHDHKAAKEHEACCHDHKKH
notes: as for B2
Consider B7, for which, in data set [2], the equilibrium dissociation constant (Kd) came out at 100 nM. Also, in data set [3], the “stoichiometry N” value turned out to be 7.

B8: HpGroES H115A mutant (natural protein, Helicobacter pylori, UniProt P0A0R3 1-118, looked up)
chain: MKFQPLGERVLVERLEEENKTSSGIIIPDNAKEKPLMGVVKAVSHKISEGCKCVKEGDVIAFGKYKGAEIVLDGTEYMVLELEDILGIVGSGSCCHTGNHDHKHAKEHEACCHDAKKH
notes: as for B2
Consider B8, for which the dissociation constant (Kd) in data set [2] is 150 nM. For the same molecule, the “stoichiometry N” value in data set [3] was determined as 7.

B9: HpGroES H113A mutant (natural protein, Helicobacter pylori, UniProt P0A0R3 1-118, looked up)
chain: MKFQPLGERVLVERLEEENKTSSGIIIPDNAKEKPLMGVVKAVSHKISEGCKCVKEGDVIAFGKYKGAEIVLDGTEYMVLELEDILGIVGSGSCCHTGNHDHKHAKEHEACCADHKKH
notes: as for B2
Regarding B9, the equilibrium dissociation constant (Kd) in data set [2] was > 1000 nM. Also, the “stoichiometry N” value in data set [3] came out at 7.
